US20020022718A1, “Genes identified as required for proliferation of E. coli” (priority 1999, published 2002)

B1: EcXA162: antisense clone insert to E. coli yjgV (nucleic acid, listed as Escherichia coli)
antisense: AAAGGTTCGGCAAAAGCCATAACCTTTTCGTCAGCTTTGGCCGGATAAGGGACACATTGCGACGTTTCGACCATTTTATAACGGGTAAAACCACCATCAACATGAGGGAAATACATGGCACTGCCAAAAAAACGCATATCTGTACACTGATTCTCGTTATGTTCAATGCAGTATTTGCAGTGACCGCACGGTTTAGACGGATTAATGGCTACCGTTTGCCCTTCATGTAATTCTGA
B2: EcXA163: antisense clone insert to E. coli yidC (nucleic acid, listed as Escherichia coli)
antisense: GAAGAGATGTTCAGGTTTTCGTTATCGGCAATGGTATCGAACTTGTATTTCTCATACTTCTCGTCAGGCGTGGAGTACGCCGCGCCACGGAA
B3: EcXA182: antisense clone insert to E. coli tktA (nucleic acid, listed as Escherichia coli)
antisense: TCGCGAACACCGTAGTGGATGTAGTTACCCGCAGCATCTTCGTTGATTGCTTTAGAACCAGACCACAGGGTCAGGTTAGACGGCGCCAGGTCAGCAGAACCGCCGAGGAATTCCGGCAACAGCGGACCGAACGCTTCGAT
B4: EcXA176: antisense clone insert to E. coli yjdH (nucleic acid, listed as Escherichia coli)
antisense: TAGTTATTGGCTGTTTTGAGAATGTAATCTTCCAACTGCTTATAACTCTTCAGATGCAATAATCCGAGAATCACATGCAATTTATTCATAAATTCGTGGGATCGTTCACGAAGTGCGTCAGCATAGTTGACCAGACCGTCGAGTCGCTGCATCAGTTTACGTA
B5: EcXA167: antisense clone insert to E. coli gatB (nucleic acid, listed as Escherichia coli)
antisense: TATAGGGGNCTATTTCATTAACCCGACACTGGATTAATTCAACAGGAATATTATGATTCTGACACAACTCTTTAATTTCTTCCGCCGCCATCGTAGAGGTCGCAACCGCGCCTCCGCAAGCGACAATAATCTTGCGTTTCATA
modifications: misc_feature (1)...(143): n = A,T,C or G
notes: antisense clone insert to E. coli gatB
B6: EcXA158: antisense clone insert to E. coli b2519 (nucleic acid, listed as Escherichia coli)
antisense: GCTGGTGCCCGTTTTCCATGCCAGTGGGGCGACGCGCGGCAAGGCACTATCCGGCAAGGGTTGCGCTTCATCAGCCATAATCCGGCGAATGATCCACGCCGCCCCCGACGACATTAAAGGCCGTTCAAGCAGCGGATCGTCAGGCTGTAAGCGCAATTTGCCTGCCTTGCCGTGGCGAGCAAACGCGGTA
B7: EcXA169: antisense clone insert to E. coli rpsE (nucleic acid, listed as Escherichia coli)
antisense: AGAGCTGTGAAGGAGAAAATACGACCACCTTTAACGGTTTTAGATACGCGGTTTACCGCGATCAGCTTTTCCTGCAGTTCGCCAGCTTGTTTTTCGATGTGAGCCATCTTACACCTCT
B8: EcXA173: antisense clone insert to E. coli yhhJ (nucleic acid, listed as Escherichia coli)
antisense: GCCACGCCCAGCATAAACAGCGGGATCGAGCCTTCAATCGGTACGCCCAGTACACCTTTCACCATCAGCACCAGCGATAATCC
B9: EcXA179: antisense clone insert to E. coli valV (nucleic acid, listed as Escherichia coli)
antisense: CGAACCAACGACCCCCACCATGTCAAGGTGGTGCTCTAACCAACTGAGCTATGAACGCAACGTTGTAGGTGACAACGGGGACGAATATTAGCGGCAGAGTGGGAAGGTGGCAAGAGGCAAAACGTAATTTTCTGCGCTATTTCGACCGTTTGCAGAGCTTTTAAGCAAATTGGCTATATTTTGTTGATTTGCAAGGGTGATTTTTATTCAGGATCGCATTTACATCTGATACAACCC
B10: EcXA175: antisense clone insert to E. coli pykA (nucleic acid, listed as Escherichia coli)
antisense: TAGCTTCTTCCACATTGTCGAACTGAACGTCCAGACGGTGTTTAGAAACGTTGATGCTCGGGATTTTTTCCGCACCCAGGCAAACGCGCGCCATGGCTGCAACGGTTTCTGACGGATACTG
B11: EcXA168: antisense clone insert to E. coli b1721 (nucleic acid, listed as Escherichia coli)
antisense: GAGGAACCGTGTGACACACAAAGGGTGATTATTTTCCATTGCGGCGTATAATCCTGGCTCACCATCATGTATTTTCATGGCTAAAATACTCATCACCAGTTTTTTGTTTAAAAGCTCTTGTGCTATTGGAGTGGTTAATGCATTCAGAAAGATATCGATTATTTCATCGAATCCATACAACATGGAGATATAAAGTCCAGGTGTTTCGTT
B12: EcXA178: antisense clone insert to E. coli rpsT (nucleic acid, listed as Escherichia coli)
antisense: CTGGAGATTGAGTAGATATTCTTGTTCAGAATGTATCAGCCCGATGGTTCTACGATTCTTAAGCCACGAAGAGTTCAGATAGTACAACGGCATGTCTCTTTTGACTATCTGGCAACCCGGCAGTGTGTTCTCTCACGCATCACAAAAGCAGCAGGCATAAAAAAACCCGCTTGCGCGGCTTTTTCACAAAGCTTCAGCAAATTGGCGATTAAGCCAGTTTGTTGATCTGTGCAGTCAGGTTAGCCTTATGACGTGCAGCTTTGTTTTTGTGGATCAAACCTTTAGCAGCCTGACGGTCCACGATCGGTTGCATTTCGTT
B13: EcXA166: antisense clone insert to E. coli yihE (nucleic acid, listed as Escherichia coli)
antisense: AAACGCATGGCGCGTAAAGGTTCAATCAGTCCGATTTCAGCGGTGTCGAACTCGCTAAATTCTTCA
B14: EcXA157: antisense clone insert to E. coli rpsC, rplV (nucleic acid, listed as Escherichia coli)
antisense: TCCTTAGTCAGGTACTGACGTACTTTAAAATCGCTGTCCAGGTTGTCAGCGAATTCTTTGGTGTTCGCAAACCAGGTAGAGTTCCATGGTTTTACAATACCCAGGCGAATACCATTAGGATGTACTTTCTGACCCATTGCTAGTCTCCAGAGTCTCAGCGATCGGACACAACCACAGTGATGTGGCTGGTG
B15: EcXA180: antisense clone insert to E. coli yjcF (nucleic acid, listed as Escherichia coli)
antisense: TGTGACAGAGTGGTTATCGTTAATCAGGCAAAGAGGGAAAAACATATTATTTAAACCATTATAGCGCATAAAATATCCTTATAATTAACAAGAAAGAAAAGGCATATTCTCTGCATTATCATTTTCTACGACTGTCAAAAATCGCTCATTTTTTAATGAGTTTATTTGTTTAATATTATGGGAAAAGGTGATGCATTTGGGAGAGGAAGAGTATTCCCCGGTCAGACGACCGGGGAAGGGG
B16: EcXA164: antisense clone insert to E. coli glpC (nucleic acid, listed as Escherichia coli)
antisense: TGTCGACATTCAGCACTTCCGGGTATTCGTCGCGCAGGGCAAATGTACAGGTTGAGGAGGTG
B17: EcXA159: antisense clone insert to E. coli b0482 (nucleic acid, listed as Escherichia coli)
antisense: AAAAAATGAAATTCCTCTTTGACGGGCCAATAGCGATATTGGCCATTTTTTTAGCGCAACATTTGCGGCAAATTCCCTTCTCCATACAGGTGTAGTGCACCGACCGCGACCACATATCGCCCCGGCGGCATGGCGCGTAATTTATCCCGCCAGGCGAGATTTCGCTGATGCATCAGCACATCGTACAGCGACTGACTGAACGTATTGGGCAGCGTTATATCATTATTTTGCGGCGGTGCATTCAGCCACCAGCTCATCATTTGTTGCAGCAACCGTGCGTTGGTATGCCAGTGGGTCAGCGTATCGTCCAGCAGCGCCAGTCCTTTGTCAGGGAGCTGGAGCAACATGGCAATCTGGTTTTCAGCCCCTTCCAGTTCAATCACGGGTTTATGTTGTTGCTTC
B18: EcXA165: antisense clone insert to E. coli ybeJ (nucleic acid, listed as Escherichia coli)
antisense: ACTTATCAAACCATTTTTCCGCTTCACCGGAGGTCTGCACCTGAGCGATGGTGTCATCCATCAGCTTTTTGA
B19: EcXA174: antisense clone insert to E. coli endA (nucleic acid, listed as Escherichia coli)
antisense: GCCNGGCGGGAACCGACATGTTCCCACTCTACGCCGGCTGGCGCGGTTTTCATTTTTGCGCACCTGATAGCCGCACGATTGCAGATCAACAACGCCTTTTTTG
B20: EcXA171: antisense clone insert to E. coli b0876 (nucleic acid, listed as Escherichia coli)
antisense: AGCGCCGGTAACGCCCGTTAAATGTTCTCGTTCGGCTTCCCGATCGTTATTCAACAGGCTGCGTACCGTAGCGGCATATTTCTTCCCTGCTTCATCGCCATC
B21: EcXA181: antisense clone insert to E. coli ppc (nucleic acid, listed as Escherichia coli)
antisense: CCCGGCTGGGTTTTTTCAAGTTTACGCAGGGGTGCGGGCGATCACTTCCGGGTTGCTGGCAGCTTCGCCTTTCGGCGAAATGCTGTGGT

System: Klebsiella pneumoniae
Assay: Growth inhibition by induced E. coli antisense RNA in Klebsiella pneumoniae
Assay type: cell-based
Parameters: key: +: a positive in Table V below means that at least 10 fold more cells were required to observe a colony on the induced plate than on the non-induced plate; −: If there was no effect of antisense RNA expression in a microorganism, the clone is minus in Table V below
Conditions: antisense RNA expression induced with IPTG, serial dilution plating
Summary of the method: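 An E. coli antisense fragment (b3052 portion), or other E. coli-inhibitory antisense clones, was expressed in each species on IPTG induction (1 mM). Serial 10-fold dilutions were spotted on selective agar with or without IPTG overnight. The score is the log difference in maximal colony-forming dilution, induced vs uninduced (0 = no effect; positive = at least 10-fold).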

| Molecule | Sensitivity of K. pneumoniae to antisense nucleic acid (growth inhibition, induced vs. uninduced) |
| --- | --- |
| B1 | − |
| B2 | − |
| B3 | − |
| B4 | − |
| B5 | − |
| B6 | − |
| B7 | − |
| B8 | − |
| B9 | − |
| B10 | − |
| B11 | − |
| B12 | − |
| B13 | − |
| B14 | − |
| B15 | − |
| B16 | − |
| B17 | − |
| B18 | − |
| B19 | − |
| B20 | − |
| B21 | − |
